Measured values published in US20200123231A1 (RESEARCH FOUNDATION OF THE CITY UNIVERSITY OF NEW YORK, published 2020).

Target: the molecule itself
Experiment: TEM, negative stain, TES buffer pH 7, 24 h at 37 C; non-specific self-association (no fibrils)
Experimental: FIG. 5A and FIG. 5B are TEM images of the non-specific aggregates of Col108r. The fibril formation was initiated by transferring Col108r in 5 mM Acetic Acid (pH 4.5) to TES buffer (pH 7) and incubated for 24 hr at 37° C. The grids were stained with 1% sodium phosphotungstate; magnification factor 10,000; the scale bar is 200 nm. The two images were taken for two different preparations under identical treatments.

B1: peptide Col108r (Col-domain, randomized Col-domain and reversed Col-domain units) (peptide)
chain: GPCCGPPGPPGPPGPPGERGPPGPQGARGLPGAPGQMGPRGLPGERGRPGAPGPAGARGEPGAPGSKGDTGAKGEPGPVGVQGPPGPAGEEGKRGARGEPGPTGPAGPKGSPGEAGRPGEAGLPGPPGPPGPPGPPGMQGLPGPRGAPGRAGPEGRAGRPGPAGLPGEQGRAGRPGPPGAEGAEGKPGAPGSPGPRGLPGPAGDTGPEGQVGARGPKGEPGTPGRAGEPGEPGVPGKAGPKGESGPPGPPGPPGPPGREGPPGQPGRAGPLGPAGMQGRPGPLGREGPRGPAGAPGRAGPEGPAGKSGTDGKAGPEGVPGQVGPPGAPGEEGRKGRAGPEGTPGAPGKPGPSGAEGPRGAEGPLGPPGPPGPPGPPGPCCGYIPEAPRDGQAYVRKDGEWVLLSTFL
notes: Forms a collagen triple helix (trimer) with Cys-knots and foldon
binding result: binds
